# Test results taken from PMC9409550 (PLoS ONE, 2022).
# B1: CDY14HL-Fc1 (Fc fusion)
# chain: QSTIEEQAKTFLDMFNHKAEDLFYQSSLAAWNYNTNITEENVQNMNNAGDKWSAFLKEQSTFAQMYPLQEIQNPTVKLQLQALQQNGSSVLSEDKSKRLNTILNTMSTIYSTGKVCNPDNPQECLLLEPGLNEIMANSLDYNERLWAWESWRSEVGKQLRPLYEEYVVLKNEMARANHYEDYGDYWRGDYEVNGVDGYDYSRGQLIEDVEHTFEEIKPLYEHLHAYVRAKLMNAYPSYISPIGCLPAHLLGDMWGRFWTNLYSLTVPFGQKPNIDVTDAMVDQAWDAQRIFKEAEKFFVSVGLPNMTQGFWEYSMLTDPGNVQKAVCLPTAWDLGKGDFRILMCTKVTMDDFLTAHHEMGHIQYDMAYAAQPFLLRNGANEGFHEAVGEIMSLSAATPKHLKSIGLLSPDFQEDNETEINFLLKQALTIVGTLPFTYMLEKWRWMVFKGEIPKDQWMKKWWEMKREIVGVVEPVPHDETYCDPASLFHVSNDYSFIRYYTRTLYQFQFQEALCQAAKHEGPLHKCDISNSTEAGQKLFNMLRLGKSEPWTLALENVVGAKNMNVRPLLNYFEPLFTWLKDQNKNSFVGWSTDWSPYAD
# Columns and labels:
# Test in all cases: flow cytometry on cells
# Details in all cases: one partner purified
# [1] = target: SARS-CoV-2 Wuhan-Hu-1 RBD, yeast-displayed (SARS-CoV-2, UniProt P0DTC2 330-530)
# [2] = target: LYRa11 RBD, yeast-displayed (bat sarbecovirus LYRa11)
# [3] = target: Rs4048 RBD, yeast-displayed (bat sarbecovirus Rs4048)
# [4] = target: Rs4231 RBD, yeast-displayed (bat sarbecovirus Rs4231)
# [5] = target: Rs7327 RBD, yeast-displayed (bat sarbecovirus Rs7327)
# [6] = target: RsSHC014 RBD, yeast-displayed (bat sarbecovirus RsSHC014, UniProt U5WLK5 318-517)
# [7] = target: RaTG13 RBD, yeast-displayed (bat sarbecovirus RaTG13)
# [8] = target: SARS-CoV-1 (Urbani) RBD, yeast-displayed (SARS-CoV-1 (Urbani))
binder,measurement,setting,value
B1,Kd,[1],0.14 nM
same,Kd,[2],0.29 nM
same,Kd,[3],0.31 nM
same,Kd,[4],0.3 nM
same,Kd,[5],0.31 nM
same,Kd,[6],0.31 nM
same,Kd,[7],1.4 nM
same,Kd,[8],0.25 nM
